The values that follow are results of earlier work, collected in paper PMC12786138.

Values joined by “and” are separate entries in the source; they are usually repeats but may differ in a detail not shown here. Identical values can stand only once.

Data set [1] has as its target SIRPα (Homo sapiens) (UniProt P78324). The experiment in a line: SPR.
The target of the next data set is SIRPα (Mus musculus) (UniProt P97797). The data set can be described thus: SPR.
In data set [2] the target is SIRPα (Homo sapiens) (UniProt P78324). The experiment in a line: colorimetric.
Sequence of SIRPα (Homo sapiens) (P78324 31-373): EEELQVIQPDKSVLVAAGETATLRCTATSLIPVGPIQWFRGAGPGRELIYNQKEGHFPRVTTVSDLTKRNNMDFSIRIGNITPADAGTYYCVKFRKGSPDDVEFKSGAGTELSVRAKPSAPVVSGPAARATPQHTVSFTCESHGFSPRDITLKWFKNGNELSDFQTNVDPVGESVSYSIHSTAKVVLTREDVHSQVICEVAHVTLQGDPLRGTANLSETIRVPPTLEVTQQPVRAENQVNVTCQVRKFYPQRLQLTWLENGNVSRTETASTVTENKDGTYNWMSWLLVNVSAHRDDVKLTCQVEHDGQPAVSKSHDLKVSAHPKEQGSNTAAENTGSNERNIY
The next data set concerns the target CD47 (Homo sapiens) (UniProt Q08722). The experiment in a line: radiolabel competition.

Sequence of CD47 ECD (from UniProt Q08722) (Q08722 19-323): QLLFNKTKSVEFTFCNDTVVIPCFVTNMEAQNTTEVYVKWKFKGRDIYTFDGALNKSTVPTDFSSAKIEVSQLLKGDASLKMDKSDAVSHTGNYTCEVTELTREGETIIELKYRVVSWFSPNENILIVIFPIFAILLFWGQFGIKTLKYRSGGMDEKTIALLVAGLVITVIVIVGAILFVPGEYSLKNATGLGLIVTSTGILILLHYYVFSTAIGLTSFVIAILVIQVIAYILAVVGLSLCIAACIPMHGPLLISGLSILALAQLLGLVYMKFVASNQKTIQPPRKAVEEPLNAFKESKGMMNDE
Sequence of SIRPα (Mus musculus) (P97797 32-373): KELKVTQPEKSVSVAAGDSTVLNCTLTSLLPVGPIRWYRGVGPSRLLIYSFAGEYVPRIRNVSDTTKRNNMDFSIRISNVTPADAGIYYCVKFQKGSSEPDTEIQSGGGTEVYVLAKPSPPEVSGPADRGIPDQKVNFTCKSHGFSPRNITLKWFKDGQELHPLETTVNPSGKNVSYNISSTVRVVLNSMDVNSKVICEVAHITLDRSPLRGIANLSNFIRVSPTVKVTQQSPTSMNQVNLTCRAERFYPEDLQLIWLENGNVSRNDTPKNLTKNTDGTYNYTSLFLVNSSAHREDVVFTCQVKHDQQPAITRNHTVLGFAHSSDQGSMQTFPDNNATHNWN
Sequence of CD47 ECD (from UniProt Q61735) (Q61735 19-303): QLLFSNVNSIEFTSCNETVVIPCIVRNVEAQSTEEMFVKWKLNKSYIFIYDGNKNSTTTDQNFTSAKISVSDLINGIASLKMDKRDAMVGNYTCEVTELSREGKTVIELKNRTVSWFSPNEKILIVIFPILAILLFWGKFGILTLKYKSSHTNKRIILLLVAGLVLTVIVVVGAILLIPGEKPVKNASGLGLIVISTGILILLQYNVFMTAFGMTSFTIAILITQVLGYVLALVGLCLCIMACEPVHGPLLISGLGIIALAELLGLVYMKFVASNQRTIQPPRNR
Sequence of TSP1 (P07996 19-1170): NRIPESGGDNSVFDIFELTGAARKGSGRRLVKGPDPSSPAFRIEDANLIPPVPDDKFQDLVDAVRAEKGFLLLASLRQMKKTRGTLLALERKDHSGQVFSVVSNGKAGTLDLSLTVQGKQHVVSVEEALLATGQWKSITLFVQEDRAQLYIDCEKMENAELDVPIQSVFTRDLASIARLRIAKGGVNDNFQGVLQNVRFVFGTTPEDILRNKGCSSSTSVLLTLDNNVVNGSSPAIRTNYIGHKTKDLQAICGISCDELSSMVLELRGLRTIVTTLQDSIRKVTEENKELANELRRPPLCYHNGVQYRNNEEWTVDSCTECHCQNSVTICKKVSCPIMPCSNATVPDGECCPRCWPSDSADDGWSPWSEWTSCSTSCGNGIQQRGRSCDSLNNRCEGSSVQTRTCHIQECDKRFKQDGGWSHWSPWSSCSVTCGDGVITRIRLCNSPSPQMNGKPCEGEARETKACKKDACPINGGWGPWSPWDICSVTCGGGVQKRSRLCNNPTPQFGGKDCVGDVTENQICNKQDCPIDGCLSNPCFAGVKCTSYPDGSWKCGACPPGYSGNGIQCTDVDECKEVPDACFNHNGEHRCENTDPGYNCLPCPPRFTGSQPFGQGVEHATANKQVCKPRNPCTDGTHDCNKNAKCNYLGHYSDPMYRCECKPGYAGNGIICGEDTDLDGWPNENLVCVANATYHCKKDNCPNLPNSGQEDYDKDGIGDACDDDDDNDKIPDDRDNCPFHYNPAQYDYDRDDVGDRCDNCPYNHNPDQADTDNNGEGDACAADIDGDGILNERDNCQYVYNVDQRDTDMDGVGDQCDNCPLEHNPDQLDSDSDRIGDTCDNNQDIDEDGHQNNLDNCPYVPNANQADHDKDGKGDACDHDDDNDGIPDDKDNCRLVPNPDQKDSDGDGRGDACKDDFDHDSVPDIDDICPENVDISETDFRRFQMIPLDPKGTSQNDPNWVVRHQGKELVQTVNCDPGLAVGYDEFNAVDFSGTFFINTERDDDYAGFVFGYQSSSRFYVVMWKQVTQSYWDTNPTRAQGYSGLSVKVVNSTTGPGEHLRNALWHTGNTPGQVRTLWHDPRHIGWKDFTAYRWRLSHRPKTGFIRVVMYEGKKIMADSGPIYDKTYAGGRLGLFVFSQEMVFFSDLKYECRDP
Sequence of CD47 ECD-alkaline phosphatase ECD (Q08722 19-323): as the sequence (Q08722 19-323) above
Sequence of CD47 (Homo sapiens) (Q08722 19-323): as above

Consider CD47 ECD (from UniProt Q08722), for which the Kd with SIRPα (Homo sapiens) [1] was 1200 nM and 1000 nM and 200 nM; with SIRPα (Mus musculus), 80 nM.

Consider CD47 ECD (from UniProt Q61735), for which the Kd is > 30000 nM with SIRPα (Homo sapiens) [1] and 4700 nM with SIRPα (Mus musculus).

Consider “CD47 ECD-alkaline phosphatase ECD (from UniProt Q08722)”, for which the Kd with SIRPα (Homo sapiens) [2] is 10 nM.

For the substance TSP1 (from UniProt P07996), the Kd with CD47 (Homo sapiens) is 0.012 nM.
